Results from article PMC8373069.

Legend:
His6-MUTYH (mouse) = assay: single-molecule DNA tightrope; conditions: one tetrahydrofuran abasic site every 2 kb, EMSA: 20 mM HEPES pH 7.5, 150 mM NaCl, 5 mM DTT, 0.5 mg/ml BSA, 5% glycerol, RT, 5% native gel in 1/2x TBE at 4 C
[1] = target: mouse MUTYH, hexa-histidine tag cleaved with thrombin (mouse) (UniProt Q99P21)
[2] = target: T1, MUTYH (His tag cleaved) (mouse) (UniProt Q99P21); assay: EMSA; conditions: 20 nM MUTYH, 8 nM DNA, no UV-DDB; strand 1 position 21 = 8-oxoG (written G); strand 2 position 17 = tetrahydrofuran abasic analogue (written N), opposite the 8-oxoG; EMSA: 20 mM HEPES pH 7.5, 150 mM NaCl, 5 mM DTT, 0.5 mg/ml BSA, 5% glycerol, RT; 5% native gel in 1/2x TBE at 4 C
T1 sequence: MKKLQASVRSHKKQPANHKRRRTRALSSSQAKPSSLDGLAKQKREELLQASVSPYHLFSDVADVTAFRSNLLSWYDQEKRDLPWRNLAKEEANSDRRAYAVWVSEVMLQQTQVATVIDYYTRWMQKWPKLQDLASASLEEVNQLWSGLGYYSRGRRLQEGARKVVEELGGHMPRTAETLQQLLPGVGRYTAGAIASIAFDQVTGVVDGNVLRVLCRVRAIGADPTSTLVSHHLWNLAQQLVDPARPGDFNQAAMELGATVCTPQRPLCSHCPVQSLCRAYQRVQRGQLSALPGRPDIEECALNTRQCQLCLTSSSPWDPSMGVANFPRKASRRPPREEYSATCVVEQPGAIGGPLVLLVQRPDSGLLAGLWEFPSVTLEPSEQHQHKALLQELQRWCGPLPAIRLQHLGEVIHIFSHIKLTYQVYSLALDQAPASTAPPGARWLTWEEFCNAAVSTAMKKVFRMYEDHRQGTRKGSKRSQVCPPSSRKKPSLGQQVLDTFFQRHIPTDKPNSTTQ

THF array (tightrope DNA)
binding signal (s (half-life on abasic sites)) (His6-MUTYH (mouse); with UV-DDB, which promotes MUTYH dissociation): 590
binding signal (s (half-life on abasic sites)) (His6-MUTYH (mouse); without UV-DDB): 8800

UV-DDB (DDB1–DDB2 heterodimer) (from UniProt Q16531 1-1140; Q92466 1-427) (complex)
MUTYH (20 nM) excision of A opposite 8-oxoG in 50 nM 37 bp duplex, with 50 nM UV-DDB against without, up to 4 h at 37°C [1]: 4 to 5 fold

CCGAGTCATTCCTGCAGCGAGTCCATGGGAGTCAAAT / ATTTGACTCCCATGGANTCGCTGCAGGAATGACTCGG [THF8-oxoG37]
binding signal [2]: > 80 % DNA bound
